The values below come from IntAct's records for PubMed 25961797.

One test addresses cbp_mouse Crebbp (UniProt P45481).
The target of a further test is cry1_mouse Cry1 (UniProt P97784).
Chain of cry1_mouse Cry1 (P97784 whole entry): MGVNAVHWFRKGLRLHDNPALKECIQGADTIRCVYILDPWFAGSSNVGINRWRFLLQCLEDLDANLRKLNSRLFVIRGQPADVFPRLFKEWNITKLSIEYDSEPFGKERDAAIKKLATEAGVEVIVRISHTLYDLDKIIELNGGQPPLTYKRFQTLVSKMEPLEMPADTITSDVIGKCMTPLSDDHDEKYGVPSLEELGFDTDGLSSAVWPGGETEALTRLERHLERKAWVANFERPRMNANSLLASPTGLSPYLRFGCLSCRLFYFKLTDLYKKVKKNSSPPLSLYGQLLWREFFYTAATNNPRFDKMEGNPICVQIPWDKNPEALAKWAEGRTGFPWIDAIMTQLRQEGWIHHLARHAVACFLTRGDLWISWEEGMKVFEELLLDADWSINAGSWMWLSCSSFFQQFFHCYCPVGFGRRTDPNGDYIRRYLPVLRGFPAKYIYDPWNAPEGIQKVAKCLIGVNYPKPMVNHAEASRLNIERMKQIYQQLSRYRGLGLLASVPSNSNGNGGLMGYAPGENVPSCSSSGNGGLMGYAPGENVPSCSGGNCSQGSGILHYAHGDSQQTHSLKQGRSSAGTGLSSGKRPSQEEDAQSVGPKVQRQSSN

Chain of Basic helix-loop-helix ARNT-like protein 1 (Mus musculus), Q9WTL8-4 L606A;L607A (Q9WTL8 other isoform, or with tags, fused parts or gaps L606A;L607A): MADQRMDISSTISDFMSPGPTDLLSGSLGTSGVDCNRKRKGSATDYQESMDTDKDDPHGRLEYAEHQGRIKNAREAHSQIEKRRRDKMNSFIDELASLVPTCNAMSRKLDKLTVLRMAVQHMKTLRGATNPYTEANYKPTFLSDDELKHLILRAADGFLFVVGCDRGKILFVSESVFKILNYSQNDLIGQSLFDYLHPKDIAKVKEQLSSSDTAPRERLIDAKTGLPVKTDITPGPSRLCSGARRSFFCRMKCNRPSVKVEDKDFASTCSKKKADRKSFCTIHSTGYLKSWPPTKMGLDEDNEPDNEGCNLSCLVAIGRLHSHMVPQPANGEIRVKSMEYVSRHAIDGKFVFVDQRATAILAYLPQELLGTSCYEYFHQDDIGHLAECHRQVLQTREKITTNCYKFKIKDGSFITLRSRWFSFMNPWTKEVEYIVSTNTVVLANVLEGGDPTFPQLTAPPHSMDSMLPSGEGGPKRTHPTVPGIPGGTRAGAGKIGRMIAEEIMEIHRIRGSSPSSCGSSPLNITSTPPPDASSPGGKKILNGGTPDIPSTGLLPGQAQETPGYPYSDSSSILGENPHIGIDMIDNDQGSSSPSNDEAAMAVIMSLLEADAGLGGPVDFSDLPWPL
Chain of Basic helix-loop-helix ARNT-like protein 1 (Mus musculus), Q9WTL8-4 V602A;I603F (Q9WTL8 other isoform, or with tags, fused parts or gaps V602A;I603F): as the sequence (Q9WTL8 other isoform, or with tags, fused parts or gaps L606A;L607A) above
Chain of cbp_mouse Crebbp (P45481 whole entry): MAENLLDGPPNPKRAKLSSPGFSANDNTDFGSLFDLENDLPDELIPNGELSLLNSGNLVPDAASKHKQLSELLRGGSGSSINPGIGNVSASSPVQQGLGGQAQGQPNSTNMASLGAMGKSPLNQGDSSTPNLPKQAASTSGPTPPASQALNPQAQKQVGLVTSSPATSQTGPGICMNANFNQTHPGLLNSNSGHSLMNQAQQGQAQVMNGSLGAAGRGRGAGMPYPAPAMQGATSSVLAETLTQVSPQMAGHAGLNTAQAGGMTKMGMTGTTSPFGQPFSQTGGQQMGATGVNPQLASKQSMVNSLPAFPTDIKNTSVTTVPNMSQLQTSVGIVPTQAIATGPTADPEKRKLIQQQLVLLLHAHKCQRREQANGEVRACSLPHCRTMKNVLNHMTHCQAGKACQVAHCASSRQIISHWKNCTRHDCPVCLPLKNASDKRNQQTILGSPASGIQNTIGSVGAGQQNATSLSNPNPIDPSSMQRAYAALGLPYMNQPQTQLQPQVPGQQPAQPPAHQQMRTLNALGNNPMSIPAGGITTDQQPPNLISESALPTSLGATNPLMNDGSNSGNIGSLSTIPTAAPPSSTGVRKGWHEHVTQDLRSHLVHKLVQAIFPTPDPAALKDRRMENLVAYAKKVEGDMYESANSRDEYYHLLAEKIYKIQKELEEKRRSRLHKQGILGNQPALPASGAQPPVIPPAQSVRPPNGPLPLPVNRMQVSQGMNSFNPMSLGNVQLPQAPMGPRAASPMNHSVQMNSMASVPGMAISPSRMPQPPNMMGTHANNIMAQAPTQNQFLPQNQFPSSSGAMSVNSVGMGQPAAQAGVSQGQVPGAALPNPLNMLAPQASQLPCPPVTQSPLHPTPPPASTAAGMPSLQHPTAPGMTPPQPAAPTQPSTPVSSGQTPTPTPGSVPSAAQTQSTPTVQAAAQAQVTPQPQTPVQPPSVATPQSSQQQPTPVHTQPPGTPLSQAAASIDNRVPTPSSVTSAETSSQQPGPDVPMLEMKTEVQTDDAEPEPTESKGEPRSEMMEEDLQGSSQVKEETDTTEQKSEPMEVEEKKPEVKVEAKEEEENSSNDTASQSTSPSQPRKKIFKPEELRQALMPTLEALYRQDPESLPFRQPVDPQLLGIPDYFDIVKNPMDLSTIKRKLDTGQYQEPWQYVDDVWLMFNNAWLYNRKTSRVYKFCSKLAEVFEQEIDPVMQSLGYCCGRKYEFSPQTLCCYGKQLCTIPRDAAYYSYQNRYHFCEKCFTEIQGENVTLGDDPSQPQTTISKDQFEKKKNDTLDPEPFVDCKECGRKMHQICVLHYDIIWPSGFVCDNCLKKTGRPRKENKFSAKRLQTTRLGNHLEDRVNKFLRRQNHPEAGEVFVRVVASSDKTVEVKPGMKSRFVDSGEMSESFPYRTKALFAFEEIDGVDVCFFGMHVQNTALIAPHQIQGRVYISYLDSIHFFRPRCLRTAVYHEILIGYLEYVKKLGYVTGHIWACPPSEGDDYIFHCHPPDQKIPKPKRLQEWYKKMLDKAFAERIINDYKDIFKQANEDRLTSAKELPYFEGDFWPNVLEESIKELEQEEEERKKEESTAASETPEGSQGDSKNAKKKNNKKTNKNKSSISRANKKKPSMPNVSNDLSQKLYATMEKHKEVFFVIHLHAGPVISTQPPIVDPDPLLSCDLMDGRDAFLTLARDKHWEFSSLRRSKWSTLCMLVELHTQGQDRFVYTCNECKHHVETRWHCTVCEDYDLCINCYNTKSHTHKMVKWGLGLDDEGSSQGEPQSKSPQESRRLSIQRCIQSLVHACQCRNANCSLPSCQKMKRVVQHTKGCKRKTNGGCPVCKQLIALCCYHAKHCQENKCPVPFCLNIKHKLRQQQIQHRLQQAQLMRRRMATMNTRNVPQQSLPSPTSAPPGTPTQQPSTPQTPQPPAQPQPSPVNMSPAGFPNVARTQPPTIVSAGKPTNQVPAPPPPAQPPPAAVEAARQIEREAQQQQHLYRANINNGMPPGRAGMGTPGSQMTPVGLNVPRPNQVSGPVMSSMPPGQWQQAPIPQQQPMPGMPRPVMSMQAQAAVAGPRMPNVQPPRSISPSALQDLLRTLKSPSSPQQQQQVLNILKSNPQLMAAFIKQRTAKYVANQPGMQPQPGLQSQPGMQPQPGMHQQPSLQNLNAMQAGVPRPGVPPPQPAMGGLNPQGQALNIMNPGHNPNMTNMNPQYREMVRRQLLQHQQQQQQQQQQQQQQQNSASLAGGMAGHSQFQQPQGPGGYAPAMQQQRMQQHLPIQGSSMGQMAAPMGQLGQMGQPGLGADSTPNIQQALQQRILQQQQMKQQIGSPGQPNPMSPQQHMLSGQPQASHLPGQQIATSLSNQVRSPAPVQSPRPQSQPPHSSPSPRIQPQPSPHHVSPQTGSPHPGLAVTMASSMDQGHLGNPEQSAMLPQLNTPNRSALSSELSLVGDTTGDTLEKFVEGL

With “Basic helix-loop-helix ARNT-like protein 1 (Mus musculus), Q9WTL8-4 L606A;L607A”, the “effect of a mutation on the interaction” value with cbp_mouse Crebbp and in the test with cry1_mouse Cry1 was “disrupting interaction strength” each time.

As for “Basic helix-loop-helix ARNT-like protein 1 (Mus musculus), Q9WTL8-4 V602A;I603F”, the “effect of a mutation on the interaction” value in the test with cry1_mouse Cry1 is “disrupting interaction strength”.
